Each block holds one binder with its values, some of them ahead of it.
Legend:
[1] = molecular target: T1, recombinant human VEGF-R2-Fc (R&D Systems cat#357-KD) (human, UniProt P35968 20-764); assay: competition ELISA: antibody on coated hVEGFR2-Fc against biotinylated hVEGF165 (Example 1.23)
T1 construct: Bought reagent; also called hVEGFR2-Fc; hVEGF-R2 (KDR/Flk-1); not shown: Fc part of the bought fusion protein
Experimental: (§1) To identify molecules which could block the binding of VEGF-R2 (KDR/Flk-1) to hVEGF₁₆₅, a competition ELISA was performed. […] Plates were then washed four times with wash buffer (TBS, 0.05% Tween-20) and blocked with Superblock blocking buffer (Thermo Scientific, cat#37535). […] The samples were added to wells and incubated for 30 minutes at 25° C. with shaking. […] Following incubation, plates were washed four times with wash buffer. Streptavidin-polyHRP-40 (Fitzgerald cat#65r-s104phrp) was diluted in assay diluent (10% Superblock containing 0.05% surfactamps) and added to plates (50 μL) for 45 minutes at 25° C. with shaking. Plates were washed four times with wash buffer and developed with the addition of Enhanced K-blue TMB substrate (Neogen cat#308177). The reaction was stopped with 2N sulfuric acid (VWR, cat# BDH3500-1) and the absorbance was read at 450 nm-570 nm. A decrease in observed optical density indicates the test molecule is blocking the human VEGF-R2-Fc binding to hVEGF₁₆₅. Data was analyzed using Softmax Pro 4.8 software and IC₅₀ values calculated using a sigmoidal dose response (variable slope) fit in GraphPad Prism 5.

[2] = molecular target: T2, recombinant mouse VEGF-R2-Fc (R&D Systems cat#443-KD) (mouse, UniProt P35918 20-762); assay: competition ELISA: antibody on coated mVEGFR2-Fc against mVEGF164 (Example 1.25)
T2 construct: Bought reagent; also called mVEGFR2-Fc; mVEGF-R2; not shown: Fc part of the bought fusion protein
T2 sequence (P35918 20-762 limits assumed): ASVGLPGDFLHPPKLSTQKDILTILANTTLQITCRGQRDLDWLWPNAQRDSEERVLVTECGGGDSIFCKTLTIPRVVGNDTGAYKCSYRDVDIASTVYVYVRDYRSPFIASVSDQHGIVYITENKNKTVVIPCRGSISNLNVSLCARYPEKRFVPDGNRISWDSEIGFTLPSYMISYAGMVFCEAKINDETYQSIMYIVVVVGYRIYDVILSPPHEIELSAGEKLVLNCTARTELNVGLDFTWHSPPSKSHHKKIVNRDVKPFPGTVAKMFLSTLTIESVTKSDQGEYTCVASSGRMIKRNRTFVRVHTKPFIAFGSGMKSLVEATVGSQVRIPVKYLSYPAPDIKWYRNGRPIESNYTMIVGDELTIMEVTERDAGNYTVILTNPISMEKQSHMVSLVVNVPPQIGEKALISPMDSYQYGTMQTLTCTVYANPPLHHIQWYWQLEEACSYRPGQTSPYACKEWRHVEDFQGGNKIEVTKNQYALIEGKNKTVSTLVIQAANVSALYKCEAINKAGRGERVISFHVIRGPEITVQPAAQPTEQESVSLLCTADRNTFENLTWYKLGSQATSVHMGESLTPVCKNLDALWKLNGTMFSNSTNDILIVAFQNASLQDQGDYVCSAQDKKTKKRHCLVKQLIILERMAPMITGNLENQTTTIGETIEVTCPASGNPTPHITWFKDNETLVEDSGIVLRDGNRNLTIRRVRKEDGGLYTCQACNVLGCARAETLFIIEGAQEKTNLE

[3] = molecular target: T3, recombinant human VEGF-R2-Fc (human, UniProt P35968 20-764); assay: competition ELISA: antibody added to coated hVEGF-R2-Fc, then biotin-hVEGF165
T3 construct: also called hVEGFR2-Fc; KDR/Flk-1; not shown: Fc part of the bought fusion protein
T3 sequence (P35968 20-764 limits assumed): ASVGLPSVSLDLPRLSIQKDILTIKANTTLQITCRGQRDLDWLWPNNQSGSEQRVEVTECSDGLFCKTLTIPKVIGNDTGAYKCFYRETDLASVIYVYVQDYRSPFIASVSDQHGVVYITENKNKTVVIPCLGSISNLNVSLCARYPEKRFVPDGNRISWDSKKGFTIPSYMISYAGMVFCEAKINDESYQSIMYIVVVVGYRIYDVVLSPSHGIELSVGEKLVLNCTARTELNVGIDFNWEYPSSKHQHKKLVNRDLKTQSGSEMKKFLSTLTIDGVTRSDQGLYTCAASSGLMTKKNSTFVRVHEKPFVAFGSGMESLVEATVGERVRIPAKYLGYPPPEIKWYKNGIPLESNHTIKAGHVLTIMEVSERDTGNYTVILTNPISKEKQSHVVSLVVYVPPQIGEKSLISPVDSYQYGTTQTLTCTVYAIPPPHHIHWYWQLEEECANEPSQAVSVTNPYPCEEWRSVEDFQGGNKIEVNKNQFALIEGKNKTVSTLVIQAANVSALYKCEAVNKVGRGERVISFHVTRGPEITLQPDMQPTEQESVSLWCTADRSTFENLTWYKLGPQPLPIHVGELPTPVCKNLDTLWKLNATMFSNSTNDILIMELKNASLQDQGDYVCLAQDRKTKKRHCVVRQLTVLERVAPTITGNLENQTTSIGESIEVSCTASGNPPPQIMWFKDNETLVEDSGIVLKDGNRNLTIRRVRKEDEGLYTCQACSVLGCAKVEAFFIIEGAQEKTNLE
Experimental: as §1

[4] = molecular target: T4, recombinant human PDGF-Rβ-Fc (R&D Systems #385-PR) (human, UniProt P09619 33-530); assay: direct ELISA on coated recombinant human PDGF-Rβ-Fc (Example 1.26)
T4 construct: Bought reagent; also called hPDGFRβ-Fc; huPDGF Rβ; not shown: Fc part of the bought fusion protein
T4 sequence (P09619 33-530 limits assumed): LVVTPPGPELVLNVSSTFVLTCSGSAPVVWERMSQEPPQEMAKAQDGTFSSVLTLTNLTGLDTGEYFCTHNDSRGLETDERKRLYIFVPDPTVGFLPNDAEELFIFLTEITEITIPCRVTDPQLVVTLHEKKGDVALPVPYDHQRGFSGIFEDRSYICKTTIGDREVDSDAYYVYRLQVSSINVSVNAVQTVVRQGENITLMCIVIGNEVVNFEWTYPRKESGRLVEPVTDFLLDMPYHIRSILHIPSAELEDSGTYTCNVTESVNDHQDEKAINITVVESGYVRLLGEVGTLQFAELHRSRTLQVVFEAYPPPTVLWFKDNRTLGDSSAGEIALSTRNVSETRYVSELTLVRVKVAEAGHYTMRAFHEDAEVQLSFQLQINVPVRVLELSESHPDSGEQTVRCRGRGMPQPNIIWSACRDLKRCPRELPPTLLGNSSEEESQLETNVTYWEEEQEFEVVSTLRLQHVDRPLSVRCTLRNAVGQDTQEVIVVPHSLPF
Experimental: Plates were then washed four times with wash buffer (TBS, 0.05% Tween-20) and blocked with Superblock blocking buffer (Thermo Scientific, cat#37535). During the blocking step, supernatants, antibodies and benchmark compounds were diluted in assay diluent (10% Superblock containing 0.05% surfactamps) and an eight point titration of each sample molecule was performed. […] Following incubation, plates were washed four times with wash buffer. […] Plates were washed four times with wash buffer and developed with the addition of Enhanced K-blue TMB substrate (Neogen, cat#308177). The reaction was stopped with 2N sulfuric acid (VWR, cat# BDH3500-1) and the absorbance was read at 450 nm-570 nm. […] Data was analyzed using Softmax Pro 4.8 software and IC₅₀ values calculated using a sigmoidal dose response (variable slope) fit in GraphPad Prism 5.

[5] = molecular target: T5, Recombinant human FcγRIIIa F158, 6xHis-tagged (human, UniProt P08637 17-208, limits assumed); assay: Biacore SPR; His-tagged human FcγR captured on anti-6xHis antibody, DVD-Ig injected
T5 construct: Captured through its 6xHis tag
T5 sequence (P08637 other isoform, or with tags, fused parts or gaps limits assumed): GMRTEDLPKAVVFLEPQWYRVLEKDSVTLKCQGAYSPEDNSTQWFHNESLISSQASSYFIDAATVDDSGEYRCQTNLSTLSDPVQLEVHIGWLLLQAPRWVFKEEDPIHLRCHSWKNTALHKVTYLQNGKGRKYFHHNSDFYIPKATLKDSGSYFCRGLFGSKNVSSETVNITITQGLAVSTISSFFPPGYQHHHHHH
Experimental: (§2) A CM5 chip (GE Healthcare, Pittsburgh, Pa.) with mouse anti-6×His antibodies (“6×His” disclosed as SEQ ID NO: 405) that were directly immobilized on the chip via amine coupling according to the GE Healthcare protocol to the density of 10000RU (all flow cells) was used for experiments. Human FcγRs were captured on flow cells 2, 3 and 4. Flow cell 1 was used as a reference surface. HBS-EP+ was used as the running buffer. […] The chip surfaces were regenerated with an injection of 10 mM glycine pH 1.5 at a flow rate of 100 μL/minute over all four flow cells after each cycle.

[6] = molecular target: T6, Recombinant human FcγRIIb, 6xHis-tagged (human, UniProt P31994 46-217, limits assumed); assay: as above
T6 construct: Captured through its 6xHis tag; also called huFcRIIb
T6 sequence: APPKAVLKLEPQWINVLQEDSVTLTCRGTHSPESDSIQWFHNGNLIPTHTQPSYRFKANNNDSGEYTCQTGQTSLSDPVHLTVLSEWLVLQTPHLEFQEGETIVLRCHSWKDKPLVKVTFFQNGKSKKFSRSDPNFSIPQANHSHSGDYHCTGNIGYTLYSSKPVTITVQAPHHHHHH
Experimental: as §2

[7] = molecular target: T7, Recombinant human FcγRIIa R131, 6xHis-tagged (human, UniProt P12318 36-218, limits assumed); assay: as above
T7 construct: Captured through its 6xHis tag
T7 sequence: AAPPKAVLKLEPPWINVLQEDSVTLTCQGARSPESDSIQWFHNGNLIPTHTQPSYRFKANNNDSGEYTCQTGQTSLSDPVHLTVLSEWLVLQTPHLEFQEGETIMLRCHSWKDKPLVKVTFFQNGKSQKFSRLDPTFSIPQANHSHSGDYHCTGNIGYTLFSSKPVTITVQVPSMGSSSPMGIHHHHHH
Experimental: as §2

[8] = molecular target: T8, Recombinant human FcγRIIa H131, 6xHis-tagged (human, UniProt P12318 36-218, limits assumed); assay: as above
T8 construct: Captured through its 6xHis tag
T8 sequence: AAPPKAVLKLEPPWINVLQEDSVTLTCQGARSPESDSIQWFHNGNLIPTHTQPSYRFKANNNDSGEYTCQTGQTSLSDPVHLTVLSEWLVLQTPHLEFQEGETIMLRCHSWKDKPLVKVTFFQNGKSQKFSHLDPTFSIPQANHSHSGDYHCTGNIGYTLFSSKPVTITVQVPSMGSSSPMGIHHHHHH
Experimental: as §2

[9] = molecular target: T9, Recombinant human FcγRIIIa V158, 6xHis-tagged (human, UniProt P08637 17-208, limits assumed); assay: Biacore SPR; His-tagged huFcγRIIIa 158V captured on anti-6xHis antibody, DVD-Ig injected; steady state fit
T9 construct: Captured through its 6xHis tag; also called huFcRIIIa 158V
T9 sequence (P08637 other isoform, or with tags, fused parts or gaps limits assumed): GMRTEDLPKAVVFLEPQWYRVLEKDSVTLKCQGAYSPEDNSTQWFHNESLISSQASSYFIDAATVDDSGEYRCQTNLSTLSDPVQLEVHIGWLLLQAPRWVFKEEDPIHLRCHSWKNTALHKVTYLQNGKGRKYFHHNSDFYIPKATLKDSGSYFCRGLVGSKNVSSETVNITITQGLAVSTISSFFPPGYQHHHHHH
Experimental: as §2
The binding of DVD-Ig molecules to FcRn from various species and the binding of DVD-Ig molecules to various FcγRs were characterized by Biacore using the method described in Example 1.2.

Mouse PDGF-BB = molecular target: T10, Mouse PDGF-BB (mouse, UniProt P31240 82-190); assay: affinity KD as tabulated in Table 69; method not given
T10 construct: Homodimer of B chains; also called mo PDGF; mPDGF-BB
T10 sequence (P31240 82-190 limits assumed): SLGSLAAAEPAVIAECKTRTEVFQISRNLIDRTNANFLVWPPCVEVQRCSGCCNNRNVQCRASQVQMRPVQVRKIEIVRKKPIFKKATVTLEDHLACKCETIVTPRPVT

[10] = molecular target: T11, Cynomolgus monkey PDGF-BB (cynomolgus monkey, UniProt P01127 82-190 (human entry), limits assumed); assay: as above
T11 construct: Homodimer of B chains; also called cyno PDGF; cynoPDGF-BB
T11 chain: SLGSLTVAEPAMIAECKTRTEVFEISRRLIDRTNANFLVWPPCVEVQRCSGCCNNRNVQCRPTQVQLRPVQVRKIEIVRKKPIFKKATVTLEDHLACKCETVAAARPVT

Cynomolgus monkey VEGF-A = molecular target: T12, Cynomolgus monkey VEGF-A (cynomolgus monkey, UniProt P15692 207-395 (human entry)); assay: as above
T12 construct: also called cyno VEGF
T12 sequence (P15692 other isoform, or with tags, fused parts or gaps limits assumed): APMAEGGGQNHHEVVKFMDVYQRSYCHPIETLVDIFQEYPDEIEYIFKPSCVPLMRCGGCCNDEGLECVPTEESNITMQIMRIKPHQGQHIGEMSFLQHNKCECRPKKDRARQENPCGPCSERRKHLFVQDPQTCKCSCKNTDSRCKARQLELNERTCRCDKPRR

Rat PDGF-BB = molecular target: T13, Rat PDGF-BB (rat, UniProt Q05028 74-182); assay: as above
T13 construct: Homodimer of B chains
T13 sequence (Q05028 74-182 limits assumed): as the sequence (P31240 82-190 limits assumed) above, with I83V, I102V counted along it

Rabbit PDGF-BB = molecular target: T14, Rabbit PDGF-BB (rabbit, UniProt Q05028 74-182 (rat entry)); assay: as above
T14 construct: also called rab PDGF
T14 sequence (Q05028 74-182 limits assumed): as the sequence (P31240 82-190 limits assumed) above, with I83V, I102V counted along it

Recombinant rat FcRn = molecular target: T15, Recombinant rat FcRn (rat, UniProt P13599 23-298, limits assumed); assay: Biacore SPR; DVD-Ig immobilised by amine coupling, recombinant FcRn injected; 1:1 binding fit
T15 construct: FcRn is normally a heterodimer with beta-2-microglobulin
T15 sequence (looked up) 1: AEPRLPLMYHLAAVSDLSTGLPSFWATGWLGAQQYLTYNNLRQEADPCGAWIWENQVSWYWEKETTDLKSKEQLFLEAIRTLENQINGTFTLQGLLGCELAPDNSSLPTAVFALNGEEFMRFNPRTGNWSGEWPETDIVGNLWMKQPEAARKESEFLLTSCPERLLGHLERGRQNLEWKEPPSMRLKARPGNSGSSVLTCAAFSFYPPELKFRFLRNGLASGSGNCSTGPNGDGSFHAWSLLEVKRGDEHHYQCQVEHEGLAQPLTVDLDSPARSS
T15 sequence (looked up) 2: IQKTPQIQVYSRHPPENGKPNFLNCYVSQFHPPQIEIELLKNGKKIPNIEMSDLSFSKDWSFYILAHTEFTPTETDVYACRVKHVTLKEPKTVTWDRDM
Experimental: Human, cynomolgus, mouse, rat and rabbit recombinant FcRns were injected over all the flow cells at a flow rate of 50 μL/minute for 1 minute at a concentrations range of from 2.7 to 6000 nM (three fold serial dilution), followed by a 2 minute dissociation time. The surfaces were regenerated with an injection of 10 mM HCl at 100 μL/minute for 2 seconds followed by an injection of HBS-EP+, pH 7.4, at a flow rate of 50 μL/minute for 30 seconds over all four flow cells. Samples were prepared and run in two running buffer systems, pH 6.0 MES-EP+, and pH […]. Recombinant human FcγRIIIa V158 and rat and mouse FcRn data were fitted to 1:1 kinetic model. Recombinant human FcγRIIa R131 and FcγRIIa H131, FcγRIIIa F158, and recombinant human, cynomolgus and rabbit FcRn binding data were fitted to a steady state affinity model. Biacore T200 Evaluation Software version 2.0 was used to fit all the data.

T1 sequence (P35968 20-764 limits assumed): as the sequence (P35968 20-764 limits assumed) above

B1: BCU-6B1-G6 (antibody, V domains shown)
VH: QIQLVQSGPELKKPGESVKISCKASGYTFTNYGMYWVKQAPGQALQFMGWINTETGQPTYADDFKGRFVFFLETSASTAYLQINNLKNEDMATYFCARLGNNYGIWFAYWGQGTLVTVSS
VL: DIQMTQSPASLSASLGETVTIECRASDDLYSTLAWYQQKPGDSPQLLIFDANRLAAGVPSRFSGSGSGTQYSLKINSLQSEDVASYFCQQYNKFPWTFGGGTKLELK
notes: Rat hybridoma anti-human VEGFR II monoclonal antibody, isotype IgG2a/κ
IC50 [1]: 4.85 nM | IC50 [2]: 1.35 nM

B3: BDE-8H6-F7 (antibody, V domains shown)
VH: EVQLVESGGGLVQPGSSLKLSCLASGFTFSNYNMYWIRQAPKKGLEWIALIFYDNNNKYYADSVKGRFTISRDNSKNTLYLEMNSLRSEDTAMYYCLRDSGPFSYWGQGTLVTVSS
VL: DIQMTQSPPSLSASLGDKVTINCQAGQNIKKYIAWYQQEPGKVPRLLIRYTSKLESDTPSRFSGSGSGRDYSFSISNVESEDIASYYCLQYDNLPWTFGGGTKLELK
notes: Rat hybridoma anti-human PDGFR-B monoclonal antibody
binding result [4]: binds

Second part, led by results:

IC50 [3]: 0.498 nM
B2: chBCU-6B1-G6 (antibody, V domains shown)
VH: QIQLVQSGPELKKPGESVKISCKASGYTFTNYGMYWVKQAPGQALQFMGWINTETGQPTYADDFKGRFVFFLETSASTAYLQINNLKNEDMATYFCARLGNNYGIWFAYWGQGTLVTVSS
VL: DIQMTQSPASLSASLGETVTIECRASDDLYSTLAWYQQKPGDSPQLLIFDANRLAAGVPSRFSGSGSGTQYSLKINSLQSEDVASYFCQQYNKFPWTFGGGTKLELK
notes: also called chimeric BCU-6B1-G6

Kd [9]: 11000 nM | Kd (Mouse PDGF-BB): 0.0003 nM | Kd [10]: 0.0008 nM | Kd (Cynomolgus monkey VEGF-A): 0.065 nM | Kd (Rat PDGF-BB): 0.003 nM | Kd (Rabbit PDGF-BB): 0.003 nM | binding result (Recombinant rat FcRn): no binding (tested: FcRn 2.7 to 6000 nM)
B4: 9E10.1_GS_CL-33675 (PR-1610561), anti-VEGF-A/anti-PDGF-BB DVD-Ig, hu IgG1/k L234A L235A H435A (bispecific antibody)
heavy: EIQLVQSGSELKKPGASVKVSCKASGYTFTNYGMYWVKQAPGQGLEYMGWIDTETGRPTYADDFKGRFVFSLDTSVSTAYLQISSLKAEDTAVYFCARWSGDTTGIRGPWFAYWGQGTLVTVSSGGGGSGGGGSEVTLRESGPALVKPTQTLTLTCTFSGFSLSTYGMGVGWIRQPPGKALEWLANIWWDDDKYYNPSLKNRLTISKDTSKNQVVLTMTNMDPVDTATYYCARIESSGPKYSFDYWGQGTMVTVSSASTKGPSVFPLAPSSKSTSGGTAALGCLVKDYFPEPVTVSWNSGALTSGVHTFPAVLQSSGLYSLSSVVTVPSSSLGTQTYICNVNHKPSNTKVDKKVEPKSCDKTHTCPPCPAPEAAGGPSVFLFPPKPKDTLMISRTPEVTCVVVDVSHEDPEVKFNWYVDGVEVHNAKTKPREEQYNSTYRVVSVLTVLHQDWLNGKEYKCKVSNKALPAPIEKTISKAKGQPREPQVYTLPPSREEMTKNQVSLTCLVKGFYPSDIAVEWESNGQPENNYKTTPPVLDSDGSFFLYSKLTVDKSRWQQGNVFSCSVMHEALHNAYTQKSLSLSPGK
light: DIRMTQSPSSLSASVGDRVTIECLASEDIYSDLAWYQQKPGKSPKLLIYNANGLQNGVPSRFSGSGSGTDYSLTISSLQPEDVATYFCQQYNYFPGTFGQGTKLEIKGGSGGGGSGGEIVLTQSPGTLSLSPGERATLSCRASSGSIWYSFVSWYQQKPGQAPRLLIYADDQRASGIPDRFSGSGSGTDFTLTISRLEPEDFAVYYCQSYGINIDVVFGGGTKVEIKRTVAAPSVFIFPPSDEQLKSGTASVVCLLNNFYPREAKVQWKVDNALQSGNSQESVTEQDSKDSTYSLSSTLTLSKADYEKHKVYACEVTHQGLSSPVTKSFNRGEC
notes: also called 9E10.1-GS-33675; hu VEGF 9E10.1-GS-hu PDGF 33675 [hu IgG1/k]; LALA H435A
binding result [5]: no binding (tested: DVD-Ig 31.25 to 4000 nM) | binding result [6]: no binding (tested: DVD-Ig 31.25 to 4000 nM) | binding result [7]: no binding (tested: DVD-Ig 31.25 to 4000 nM) | binding result [8]: no binding (tested: DVD-Ig 31.25 to 4000 nM)

Reference: patent US20170015742A1 (published 2017)
